Test results taken from patent US11066655B2, “RNA polymerase, methods of purification and methods of use” (President and Fellows of Harvard College, priority 2013, dated 2021).

B1: Syn5 RNAP: single subunit DNA-dependent RNA polymerase from marine cyanophage Syn5, amino acid sequence SEQ ID NO:23 (protein)
chain: MSFDLIARQLQRETEAAELARKRLQDARREANERSYASSNIESRKAIATFLDPIAQRIGERLFTLRRGTGAVDAAEVYKHLKNADHHHLALITMKTALDVLGKDPEPQIQQLTTAIGRNIQLELRLTYYAEENPELYKQASRFFHAGTGTRQKATVIKLKFNREGIEWDQWSRVTCHKVGQWLMLAMADVTGWIERATDRTSGGRKTKTRICYSREFLQHRDTILAAAEQLAFCQWPMLCPPIEWSNDHNGGYLSEQIRRVNPLIRKTGPLGTRKQGDIPLAMLNNLQGQAYKVNPEVLDIANHCYESNVTVGKFIRHAPLPVPPSPGEDCTEDQLTAYKRARREAEDFNAQISQKNWRTTEVMYVARKYADEASFWMPASFDYRGRVYFLNTALNPQGTDFDKALLYFAEEGPVNEWWLSFHVATTYGLDKETMVNRVQWARDNHELIDRIASDPVRHTEWHDADEPWCFLAACLEYKACVIDGTKQTSGLPIGIDATCSGLQHLAAMTRCGRTAALVNVTPTDKPADAYKTVAQASLKHLPKEQHEWITRKVTKRPVMCTPYGVTMSSARGYIRDQLVKDGHKEDLRSPGVLNGIVKAIFNEAIPEVIPGPVQVMAWLKRSAGQIIDRGDSTITWTTPSGFEVVQDLKKSKTYEVKTRIMGGARIKLQVGDGFTDEPDRDHHKSALAPNVVHSNDASLLHLTFAFWDKPFTVIHDCVLGRSCDMDQMGSDIRLHFAEMYKADVMQDWADQVGVELPVDLIKNTLDIDSVNQSLYFFS
modifications: Amino acid sequence of a cyanophage Syn5 RNAP

What was measured:
[1] = Chamberlin et al. (1973); cited from earlier work
[2] = Solubility / precipitation of the purified enzyme; assay type: physicochemical; conditions: transcription reaction
Procedure: His-tagged Syn5 RNAP was expressed from a pET24 vector harboring His-tagged Syn5 RNAP gene between the NdeI and NotI sites (Zhu et al. (2013)) and purified by Ni-NTA agarose and gel filtration chromatography. 2 M NaCl was present during the purification procedure and was removed by dialysis as the protein was finally concentrated. E. coli BL21(DE3) cells over-producing the protein were cultured in 2 L LB medium containing 50 µg/ml kanamycin at 37° C. until they reached an OD600 of approximately 1.2. The gene for Syn5 RNAP was induced by the addition of 0.5 mM IPTG at 16° C. and incubation continued for 3 hr. Cells were harvested, resuspended in 50 mM sodium phosphate, pH 8.0, 100 mM NaCl, and lysed by three cycles of freeze-thaw in the presence of 0.5 mg/ml lysozyme. 2 M NaCl was then added to the lysed cells and the cleared lysate was collected by centrifugation. 2 ml Ni-NTA agarose was added to the clear lysate and mixed at 4° C. overnight. The resin was then washed with 30 ml of wash buffer (50 mM sodium phosphate, pH 8.0, 2 M NaCl, and 20 mM imidazole). […] Fractions were analyzed on SDS-PAGE gels and those with Syn5 RNAP over 80% were collected and concentrated with Amicon Ultra-15 Centrifugal Filter Units (Millipore) to 1 ml. […] Fractions were analyzed on SDS-PAGE gels and those with homogenous Syn5 RNAP were pooled. […]

[3] = test system: dsDNA template (1, 2 or 3); assay: Incorporation of 2′-F-dNTP into RNA by wild-type Syn5 RNA polymerase (Mg buffer); assay type: biochemical
Source text: FIG. 24 depicts gels showing incorporation of 2′-F-dNTP into RNA using WT Syn5 RNA polymerase.
According to certain aspects of the invention, wild-type Syn5 RNA polymerase was used in methods described herein for high yield 2′-F RNA synthesis, with DNA templates that allow incorporation of fewer than three 2′-F-dNTP into the first 12 nt of a full-length transcript and in a non-consecutive manner. Transcription initiation (synthesis of 2-12 nt RNA) can be the most unstable stage for an RNA polymerase. Once transcripts are extended over 12 nt, transcription elongation is robust and stable. To determine whether the incorporation of 2′-F-dNTP during the transcription initiation stage is a rate-limiting step of Syn5 RNA polymerase, Syn5 RNA polymerase transcription in the presence of 2′-F-dNTPs on DNA templates that allow various amounts of 2′-F-dNTP incorporation into the first 12 nt of the RNA products was compared. The following conditions were used.
The reaction components were incubated at 37° C. for 4 hrs. Then 0.4 µl of the reaction mixture were loaded onto 10% TBE gel and stained with ethidium bromide. […] See FIG. 1. lane 1 vs 2; 8 vs 7; 15 vs 14. […] Template 1 has also 3Gs but two of them are consecutive. […] See FIG. 1. lane 10 vs 7; lane 17 vs 14). […] Although there are only 2 Cs in the 1-12 nt region of template 1, two consecutive incorporations during the initiation stage prevented the efficient synthesis of RNA products containing 2′-F-dCMP. With template 3 starting with C, 2′-F-dCTP was still efficiently incorporated.

[4] = test system: template for a 37 nt RNA or a 2.7 knt RNA; assay: 2′-F-dNTP incorporation with mixed cofactor Mg2+/Mn2+; assay type: biochemical; conditions: mixed cofactors Mg2+/Mn2+
Source text: FIG. 25A depicts a gel showing that WT Syn5 polymerase incorporates 2′-F-C/UTP and all four 2′-F′dNTP in the presence of mixed cofactor Mg^2+/Mn^2+.
FIG. 25B depicts a gel comparing 2′-F′dNTP incorporation using Mg^2+ versus the mixed cofactor.
According to certain aspects of the invention, co-factors such as Mg^+2 and Mn^+2 are used to reduce discrimination against 2′-F-dNTP of wild-type Syn5 RNA polymerase. The optimum cofactor concentration of Mg^2+ or Mn^2+ is similar for Syn5 RNA polymerase, and Mg^2+ and Mn^2+ are provided as mixed cofactors for the Syn5 RNA polymerase. Without wishing to be bound by scientific theory, a substantial proportion of Syn5 RNA polymerase in the reaction may utilize one Mg^2+ and one Mn^2+ in their active sites for catalysis (based on the two-metal-ion mechanism for polymerase catalysis) so that both high overall yield and low discrimination against 2′-F-dNTP can be achieved with the methods described herein.
The reaction components were incubated at 37° C. for 4 hrs. 0.4 µl of the reaction mixture were loaded onto 10% TBE gel or 2% agarose gel and stained with ethidium bromide. […] See FIG. 25A lane 5 vs lane 1; FIG. 25B lane 3 vs lane 1). […]

Row | Molecule | temperature of maximum activity [1] [°C] | final concentration in the reaction resulting in severe protein precipitation [2] | full-length products containing 2′-F-dUMP ([3]; template 1 and 3) | incorporation of 2′-F-dUTP ([3]; template 2) | incorporation of 2′-F-dCTP ([3]; template 2 and 3) | full-length transcript with ATP replaced by 2′-F-dATP ([3]; templates 1, 2, 3) | discrimination against 2′-F-dCTP ([3]; transcription elongation) | RNA with all four 2′-F-dNMPs [4] | yield of 2′-F-dCMP/2′-F-dUMP incorporated RNA [4]
1 | T7 RNAP: RNA polymerase encoded by bacteriophage T7, from New England Biolabs [reference compound] | 37 |  |  |  |  |  |  |  | 
2 | B1 |  | over 5 µM | low yield | efficient incorporation | incorporated very well | none of them produces full-length transcript | no intrinsic discrimination against 2′-F-dCTP | substantial yield | better yield
